# Results reported in US20240216557A1, “RADIOLIGAND BINDING TO ANTI-DLL3 ANTIBODIES FOR PRETARGETED PET IMAGING AND THERAPEUTIC USES THEREOF” (Memorial Sloan-Kettering Cancer Center, priority 2021, published 2024).
# T1: Histidine-tagged DLL3 antigen (DLL3-His) (Homo sapiens, UniProt Q9NYJ7)
# T1 construct: corresponding to amino acids Ala27-Ala479 with a C-terminal 6×His tag; made in house; host or cells: HEK293T cells
# T1 sequence (Q9NYJ7 27-479): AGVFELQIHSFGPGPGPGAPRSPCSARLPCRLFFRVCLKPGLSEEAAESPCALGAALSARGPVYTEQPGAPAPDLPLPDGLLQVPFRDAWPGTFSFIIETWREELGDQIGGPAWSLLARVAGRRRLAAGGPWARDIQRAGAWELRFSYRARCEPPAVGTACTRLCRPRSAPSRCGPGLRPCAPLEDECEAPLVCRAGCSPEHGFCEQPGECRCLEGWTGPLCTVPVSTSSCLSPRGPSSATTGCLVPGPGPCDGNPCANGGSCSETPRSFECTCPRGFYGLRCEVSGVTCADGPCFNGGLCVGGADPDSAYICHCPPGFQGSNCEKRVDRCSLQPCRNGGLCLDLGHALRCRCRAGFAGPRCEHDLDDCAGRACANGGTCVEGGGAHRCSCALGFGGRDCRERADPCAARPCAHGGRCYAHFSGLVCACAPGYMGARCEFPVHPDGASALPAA
# T2: hDLL1 (Homo sapiens, UniProt O00548)
# T2 sequence (O00548 18-723): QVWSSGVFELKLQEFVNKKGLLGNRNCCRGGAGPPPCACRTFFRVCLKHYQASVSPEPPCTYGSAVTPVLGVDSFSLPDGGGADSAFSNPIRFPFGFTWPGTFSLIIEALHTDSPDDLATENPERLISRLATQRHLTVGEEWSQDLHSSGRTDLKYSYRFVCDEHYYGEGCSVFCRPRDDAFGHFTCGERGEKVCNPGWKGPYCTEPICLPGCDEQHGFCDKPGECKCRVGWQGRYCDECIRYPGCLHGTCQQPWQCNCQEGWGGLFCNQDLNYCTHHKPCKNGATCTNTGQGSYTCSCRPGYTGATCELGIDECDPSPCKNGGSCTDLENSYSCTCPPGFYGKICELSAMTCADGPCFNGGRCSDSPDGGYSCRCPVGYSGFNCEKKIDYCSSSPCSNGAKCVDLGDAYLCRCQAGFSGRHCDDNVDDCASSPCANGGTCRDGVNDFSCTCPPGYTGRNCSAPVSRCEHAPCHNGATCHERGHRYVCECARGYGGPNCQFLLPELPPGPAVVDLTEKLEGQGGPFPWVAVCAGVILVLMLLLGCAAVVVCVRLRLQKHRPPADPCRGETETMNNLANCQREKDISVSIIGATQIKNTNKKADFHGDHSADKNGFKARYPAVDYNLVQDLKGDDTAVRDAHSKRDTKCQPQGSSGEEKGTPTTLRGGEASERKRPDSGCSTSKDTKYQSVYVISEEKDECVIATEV
# Tests used:
# [1] = target: T1, Histidine-tagged DLL3 antigen (DLL3-His); assay: Pairwise epitope binning on Carterra array SPR; conditions: pairwise competition for binding to DLL3-His, antibodies immobilized on HC200M chip
# Method: The panel of purified anti-DLL3 monoclonal antibodies and the reference monoclonal antibody were subjected to pairwise epitope binning on a Carterra® array surface plasmon resonance (SPR) assay platform (Carterra*Inc., Salt Lake City UT) where each monoclonal antibody was tested for the capture of Histidine-tagged DLL3 antigen (DLL3-His), and also for competing with every other antibody in the panel for the binding to DLL3-His. The antibodies were immobilized on a HC200M chip (ligand) through standard amine coupling techniques by the print array method. Then in each cycle antigen was injected across the entire array followed by a single antibody (analyte). At the end of each cycle the surface was regenerated to remove antigen and analyte before a new cycle started.
# [2] = target: T2, hDLL1; assay: ELISA specificity, hDLL1; format: binding
# Method: Next, affinity, binding domain, and specificity of antibodies including scFv designated as J8, B2, and L22 were analyzed. Affinity, binding domain and specificity of novel human anti-DLL3 antibodies are depicted in Table 30 below.
# [3] = test system: SCLC xenografts; conditions: mouse, in vivo, sc; cited from earlier work
# [4] = test system: SCLC cells; conditions: cited from earlier work
Molecule,Epitope Bin [1],other results
"B16-v2: anti-DLL3 antibody, VH SEQ ID NO: 108, VL SEQ ID NO: 113 (antibody, V domains shown) VH: QVQLVQSGAEVKKPGASVKVSCKASGYTFTSYYMHWVRQAPGQGLEWMGIIDPSGGSTSYAQKFQGRVTMTRDTSTNTVYMDLSSLRSEDTAVYYCARQGRYVGSYLDYWGQGTLVTVSS VL: DIQMTQSPSSLSASVGDRVTITCRASQGISNYLAWFQQKPGKAPKSVIYAASSLQSGVPSKFSGSGSGTDFTLTISSMQPEDFATYYCQQYNSYPYTFGQGTKLEIK",4,–
"O24: anti-DLL3 antibody, VH SEQ ID NO: 66, VL SEQ ID NO: 67 (antibody, V domains shown) VH: QVQLVQSGAEVKKPGASVKVSCKASGYTFTSYYLHWVRQAPGHGLEWMAIINPSGGSTSYAQKFLGRVTMTRDTSTNTVYMELSSLRSEDTAVYYCARERQQLDYYYFAMDVWGQGTTVTVSS VL: DIQMTQSPSSLSASVGDRVTITCRASQGISNYLAWFQQKPGKAPKSLIYAASSLQSGVPSKFSGSGSGTDFTLTISSLQPEDFATYYCQQYNSYPPTFGQGTKVEIK",4,–
"J8: anti-DLL3 antibody, VH SEQ ID NO: 7, VL SEQ ID NO: 8 (antibody, V domains shown) VH: QVHLVQSGAEVKKPGASVKVSCKASGYTFTIYYIHWVRQAPGQGLEWMGIINPSGGSTSYAQKFQGRVTMTRDTSTSTVYMELSSLRSEDTAVYYCSGNDYVDYVTTDYYGMDVWGQGTTVTVSS VL: DIQMTQSPSSLSASVGDRVTITCRASQGISNYLAWFQQKPGKAPKSLIYAASSLQSGVPSKFSGSGSGTDFTLTISSLQPEDFATYYCQQYNSSPYTFGQGTKLEIK",4,ELISA hDLL1 [2]: 0.095
"E9: anti-DLL3 antibody, VH SEQ ID NO: 42, VL SEQ ID NO: 43 (antibody, V domains shown) VH: QVQLVQSGAEVKKPGASVKVSCKASGYTFTSYYMHWVRQAPGQGLEWMGVINSSGGSTSYAQKFQGRVTMTRDTSTSTVYMDLSSLRSEDTAVYYCARGYCTNGVYYDEDFDYWGQGTLVTVSS VL: DIQMTQSPSSLSASVGDRVTITCRASQGISHYLAWFQQKPGKAPTSLIYAASSLQSGVPSKFSGSGSGTDFTLTISSLQPEDFATYYCQQYNSYPLTFGGGTKVEIK",4,–
"B22: anti-DLL3 antibody, VH SEQ ID NO: 141, VL SEQ ID NO: 142 (antibody, V domains shown) VH: EVQLVESGGGLVQPGGSLRLSCAASGFTFNNFWMSWVRQAPGKGLEWVANIKQDGSEKYYVDSVKGRFTISRDNAKNSLYLQMNSLRAEDTAVYYCARESYFDLWGRGTLVTVSS VL: QAVVTQESALTTSPGETVTLTCRSSTGAVTTSNYANWVQEKPDHLFTGLIGGTNNRAPGVPARFSGSLIGDKAALTITGAQTEDEAIYFCALWYSNRWVFGGGTKLTVL",2,–
"L22: anti-DLL3 antibody, VH SEQ ID NO: 17, VL SEQ ID NO: 18 (antibody, V domains shown) VH: EVQLLESGGGLVQPGGSLRLSCAASGFTFSSYAMGWVRQTPGKGLEWVSTISGRGGDTYYADSVKGRFTISRDNSKNTLYLQMNSLRAEDTAIYYCAKERGLGFDYWGQGTLVTVSS VL: DIVMTQTPLSLPVTPGEPASISCRSSQSLLDSDDGNTYLDWYLQKPGQSPQLLIYTLSYRASGVPDRFSGSGSGTDFTLKISRVEAEDVGVYYCMQHLEFPLTFGGGTKVEIK",8,ELISA hDLL1 [2]: 0.105
"A18: anti-DLL3 antibody, VH SEQ ID NO: 34, VL SEQ ID NO: 35 (antibody, V domains shown) VH: QVTLRESGPALVKSTQTLTLTCTFSGFSLSTSGMCVSWIRQTPGKALEWLALIDWDDNKYYSTSLKTRLIISKDTSKNQVVLTMTNMEPVDTATYYCARIRGYSGSYDAFDIWGQGTMVTVSS VL: DIVMTQSPLSLPVTPGEPASISCRSSQSLLHSNGYNYLDWYLQKPGQSPHILLYLGSNRAPGVPDRFSGSGSGTDFTLKISRVEAEDVGVYYCMQALQTPFTFGPGTKVDIK",6,–
"G16: anti-DLL3 antibody, VH SEQ ID NO: 157, VL SEQ ID NO: 158 (antibody, V domains shown) VH: QVQLVQSGAEVKKPGASVQVSCKASGYTFTSYYMHWVRQAPGQGLEWMGIINPSGGSTSYAQKFQGRVTMTRDTSTSTVYMELSSLRSEDTAVYYCARQGGAQWLVLAFDIWGQGTMVTVSS VL: EIVLTQSPGTLSLSPGERATLSCRASQSVSSYLAWYQQKPGQAPRLLIYGASSRATGIPDRFSGGGSGTDFTLTISRLEPEDFAVYYCQQYGSSPYTFGQGTKLEIK",4,–
"F9: anti-DLL3 antibody, VH SEQ ID NO: 126, VL SEQ ID NO: 127 (antibody, V domains shown) VH: QVQLVQSGAEVKKPGASVQVSCKASGYTFTSYYMHWVRQAPGQGLEWMGIINPSGGSTSYAQKFQGRVTMTRDTSTSTVYMELSSLRSEDTAVYYCARQGGAQWLVLAFDIWGQGTMVTVSS VL: EIVLTQSPGTLSLSPGERATLSCRASQSVSSYLAWYQQKPGQPPRLLIYGASSRATGIPDRFSGGGSGTDFTLTISRLEPEDFAVYYCQQYDSSPYTFGQGTKLEIK",4,–
"E23: anti-DLL3 antibody, VH SEQ ID NO: 119, VL SEQ ID NO: 120 (antibody, V domains shown) VH: QVQLVQSGAEVRKPGASVKVSCKASGYTFTGYYMHWVRQAPGQGLEWMGWINSYSGGANYAQKFQDRVTMTRDTSVSTASMELSRLRSDDTAVYYCARDGSGWYGSYFDFWGQGTLVTVSS VL: DIVMTQTPLSSPVTLGQPASISCRSSQSLVHSDGNTYLSWLQQRPGQPPRLLIYKISNRFSGVPDRFSGSGAGTDFTLKISRVEAEDVGFYYCIQTTQFPLTFGGGTKVEIK",7,–
"[^89Zr]Zr-DFO-SC16 (conjugate, chains of the INN, looked up, DFO chelator, 89Zr label) VH: QVQLVQSGAEVKKPGASVKVSCKASGYTFTNYGMNWVRQAPGQGLEWMGWINTYTGEPTYADDFKGRVTMTTDTSTSTAYMELRSLRSDDTAVYYCARIGDSSPSDYWGQGTLVTVSS VL: EIVMTQSPATLSVSPGERATLSCKASQSVSNDVVWYQQKPGQAPRLLIYYASNRYTGIPARFSGSGSGTEFTLTISSLQSEDFAVYYCQQDYTSPWTFGQGTKLEIK",–,time post-injection at which optimal imaging was achieved [3]: ≥ 120
"SC16: DLL3-targeting SC16 antibody component of Rova-T (antibody, chains of the INN, looked up, V domains shown) VH: QVQLVQSGAEVKKPGASVKVSCKASGYTFTNYGMNWVRQAPGQGLEWMGWINTYTGEPTYADDFKGRVTMTTDTSTSTAYMELRSLRSDDTAVYYCARIGDSSPSDYWGQGTLVTVSS VL: EIVMTQSPATLSVSPGERATLSCKASQSVSNDVVWYQQKPGQAPRLLIYYASNRYTGIPARFSGSGSGTEFTLTISSLQSEDFAVYYCQQDYTSPWTFGQGTKLEIK",–,internalization by SCLC cells upon binding to DLL3 [4]: rapidly internalized
